# Columns and labels:
# [1] = target: T1, Recombinant Human IL-1β (human, UniProt P01584 117-269); assay: BIACORE SPR, antibody captured, antigen in flow
# T1 construct: also called IL-1b; IL-1B
# Experimental: (§1) The BIACORE assay (Biacore, Inc, Piscataway, N.J.) determines the affinity of antibodies or DVD-Ig with kinetic measurements of on-rate and off-rate constants. […] All chemicals are obtained from Biacore® AB (Uppsala, Sweden) or otherwise from a different source as described in the text. For example, approximately 5000 RU of goat anti-mouse IgG, (Fcγ), fragment specific polyclonal antibody (Pierce Biotechnology Inc, Rockford, Ill.) diluted in 10 mM sodium acetate (pH 4.5) is directly immobilized across a CM5 research grade biosensor chip using a standard amine coupling kit according to manufacturer's instructions and procedures at 25 μg/ml. Unreacted moieties on the biosensor surface are blocked with ethanolamine. Modified carboxymethyl dextran surface in flowcell 2 and 4 is used as a reaction surface. Unmodified carboxymethyl dextran without goat anti-mouse IgG in flow cell 1 and 3 is used as the reference surface. For kinetic analysis, rate equations derived from the 1:1 Langmuir binding model are fitted simultaneously to association and dissociation phases of all eight injections (using global fit analysis) with the use of Biaevaluation 4.0.1 software. Purified antibodies or DVD-Ig are diluted in HEPES-buffered saline for capture across goat anti-mouse IgG specific reaction surfaces. Antibodies or DVD-Ig to be captured as a ligand (25 μg/m) are injected over reaction matrices at a flow rate of 5 μl/min. The association and dissociation rate constants, kₒₙ (M⁻¹s⁻¹) and koff (s⁻¹) are determined under a continuous flow rate of 25 μl/min. Rate constants are derived by making kinetic binding measurements at different antigen concentrations ranging from 10-200 nM. The equilibrium dissociation constant (M) of the reaction between antibodies or DVD-Igs and the target antigen is then calculated from the kinetic rate constants by the following formula: KD=koff/kₒₙ. Binding is recorded as a function of time and kinetic rate constants are calculated.
# [2] = target: T1, Recombinant Human IL-1β; assay: direct bind ELISA, antigen coated on plate
# Experimental: (§2) Enzyme Linked Immunosorbent Assays to screen for antibodies that bind a desired target antigen were performed as follows. High bind ELISA plates (Corning Costar #3369, Acton, Mass.) were coated with 100 μL/well of 10 μg/ml of desired target antigen (R&D Systems, Minneapolis, Minn.) or desired target antigen extra-cellular domain/FC fusion protein (R&D Systems, Minneapolis, Minn.) or monoclonal mouse anti-polyHistidine antibody (R&D Systems # MAB050, Minneapolis, Minn.) in phosphate buffered saline (10×PBS, Abbott Bioresearch Center, Media Prep# MPS-073, Worcester, Mass.) overnight at 4° C. Plates were washed four times with PBS containing 0.02% Tween 20. Plates were blocked by the addition of 300 μL/well blocking solution (non-fat dry milk powder, various retail suppliers, diluted to 2% in PBS) for ½ hour at room temperature. Plates were washed four times after blocking with PBS containing 0.02% Tween 20.
# (§3) Plates were washed 4 times with PBS containing 0.02% Tween 20.
# (§4) One hundred microliters of enhanced TMB solution (Neogen Corp. #308177, K Blue, Lexington, Ky.) was added to each well and incubated for 10 minutes at room temperature. The reaction was stopped by the addition of 50 μL 1N sulphuric acid.
# [3] = target: T2, Recombinant Human β-NGF (human, UniProt P01138 122-239, limits assumed); assay: BIACORE SPR, DVD-Ig captured, antigen in flow (N-terminal VD)
# T2 sequence (P01138 122-239 limits assumed): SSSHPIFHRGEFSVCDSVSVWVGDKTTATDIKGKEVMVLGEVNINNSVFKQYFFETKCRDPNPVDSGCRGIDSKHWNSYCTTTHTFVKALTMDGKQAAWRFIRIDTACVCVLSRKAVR
# Experimental: as §1
# [4] = target: T2, Recombinant Human β-NGF; assay: direct bind ELISA, antigen coated on plate (N-terminal VD)
# Experimental: as §2, §3, §4
# [5] = target: T3, Recombinant Human VEGF (human, UniProt P15692-4 27-191); assay: direct bind ELISA, antigen coated on plate (C-terminal VD)
# T3 construct: also called VEGF165
# T3 sequence (P15692 other isoform, or with tags, fused parts or gaps limits assumed): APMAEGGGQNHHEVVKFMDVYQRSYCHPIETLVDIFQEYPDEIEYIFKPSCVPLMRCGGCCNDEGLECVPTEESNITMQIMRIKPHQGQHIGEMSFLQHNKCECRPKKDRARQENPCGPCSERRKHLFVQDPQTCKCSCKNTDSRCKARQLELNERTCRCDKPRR
# Experimental: as §2, §3, §4
# [6] = target: T3, Recombinant Human VEGF; assay: BIACORE SPR, DVD-Ig captured, antigen in flow (C-terminal VD)
# Experimental: as §1
# [7] = target: T1, Recombinant Human IL-1β; assay: BIACORE SPR, DVD-Ig captured, antigen in flow (N-terminal VD)
# Experimental: as §1
# [8] = target: T1, Recombinant Human IL-1β; assay: cell-based or functional assay
# [9] = target: T1, Recombinant Human IL-1β; assay: direct bind ELISA, antigen coated on plate (N-terminal VD)
# Experimental: as §2, §3, §4
# [10] = target: T3, Recombinant Human VEGF; assay: BIACORE SPR, DVD-Ig captured, antigen in flow (N-terminal VD)
# Experimental: as §1
# [11] = target: T3, Recombinant Human VEGF; assay: direct bind ELISA, antigen coated on plate (N-terminal VD)
# Experimental: as §2, §3, §4
# [12] = target: T2, Recombinant Human β-NGF; assay: BIACORE SPR, antibody captured, antigen in flow
# Experimental: as §1
# [13] = target: T2, Recombinant Human β-NGF; assay: direct bind ELISA, antigen coated on plate
# Experimental: as §2, §3, §4
# [14] = target: T2, Recombinant Human β-NGF; assay: BIACORE SPR, antibody captured, antigen in flow; Biacore, antibody captured, 25 C, HBS-EP
# Experimental: as §1, with “For kinetic analysis, rate equations derived from the 1:1 Langmuir binding model are fitted simultaneously to association and dissociation phases of all eight injections (using global fit analysis) with the use of Biaevaluation 4.0.1 software. Purified antibodies or DVD-Ig are diluted in HEPES-buffered saline for capture across goat anti-mouse IgG specific reaction surfaces. Antibodies or DVD-Ig to be captured as a ligand (25 μg/m) are injected over reaction matrices at a flow rate of 5 μl/min.” left out, “Rate constants are derived by making kinetic binding measurements at different antigen concentrations ranging from 10-200 nM.” left out
binder,measurement,setting,value
"AB032 anti-IL-1b parent antibody (antibody, human IgG1, V domains shown) VH: QVQLVESGGGVVQPGRSLRLSCAASGFTFSVYGMNWVRQAPGKGLEWVAIIWYDGDNQYYADSVKGRFTISRDNSKNTLYLQMNGLRAEDTAVYYCARDLRTGPFDYWGQGTLVTVSS VL: EIVLTQSPDFQSVTPKEKVTITCRASQSIGSSLHWYQQKPDQSPKLLIKYASQSFSGVPSRFSGSGSGTDFTLTINSLEAEDAAAYYCHQSSSLPFTFGPGTKVDIKR",Kd,[1],0.0131 nM
same,EC50,[2],5.27 nM
"DVD164 (NGF / PGE2 DVD-Ig) (bispecific antibody, Outer domain is AB020 (NGF), inner domain is AB048 (PGE2); also called VD164H; VD164L) VH: QVQLQESGPGLVKPSETLSLTCTVSGFSLIGYDLNWIRQPPGKGLEWIGIIWGDGTTDYNSAVKSRVTISKDTSKNQFSLKLSSVTAADTAVYYCARGGYWYATSYYFDYWGQGTLVTVSSASTKGPEVQLVQSGAEVKKPGASVKVSCKASGYTFTKYWLGWVRQAPGQGLEWMGDIYPGYDYTHYNEKFKDRVTLTTDTSTSTAYMELRSLRSDDTAVYYCARSDGSSTYWGQGTLVTVSS VL: DIQMTQSPSSLSASVGDRVTITCRASQSISNNLNWYQQKPGKAPKLLIYYTSRFHSGVPSRFSGSGSGTDFTFTISSLQPEDIATYYCQQEHTLPYTFGQGTKLEIKRTVAAPDVLMTQTPLSLPVTPGEPASISCTSSQNIVHSNGNTYLEWYLQKPGQSPQLLIYKVSNRFSGVPDRFSGSGSGTDFTLKISRVEAEDVGVYYCFQVSHVPYTFGGGTKVEIKR",Kd,[3],0.248 nM
same,koff,[3],0.000103 s⁻¹
same,kon,[3],414000 M⁻¹ s⁻¹
same,EC50,[4],1.21 nM
"DVD161 (PGE2 / VEGF DVD-Ig) (bispecific antibody, Outer domain is AB048 (PGE2), inner domain is AB014 (VEGF); also called VD161H; VD161L) VH: EVQLVQSGAEVKKPGASVKVSCKASGYTFTKYWLGWVRQAPGQGLEWMGDIYPGYDYTHYNEKFKDRVTLTTDTSTSTAYMELRSLRSDDTAVYYCARSDGSSTYWGQGTLVTVSSASTKGPEVQLVESGGGLVQPGGSLRLSCAASGYTFTNYGMNWVRQAPGKGLEWVGWINTYTGEPTYAADFKRRFTFSLDTSKSTAYLQMNSLRAEDTAVYYCAKYPHYYGSSHWYFDVWGQGTLVTVSS VL: DVLMTQTPLSLPVTPGEPASISCTSSQNIVHSNGNTYLEWYLQKPGQSPQLLIYKVSNRFSGVPDRFSGSGSGTDFTLKISRVEAEDVGVYYCFQVSHVPYTFGGGTKVEIKRTVAAPDIQMTQSPSSLSASVGDRVTITCSASQDISNYLNWYQQKPGKAPKVLIYFTSSLHSGVPSRFSGSGSGTDFTLTISSLQPEDFATYYCQQYSTVPWTFGQGTKVEIKR",EC50,[5],391 nM
same,Kd,[6],0.755 nM
same,koff,[6],0.000209 s⁻¹
same,kon,[6],277000 M⁻¹ s⁻¹
"DVD158 (IL-1b / PGE2 DVD-Ig) (bispecific antibody, Outer domain is AB032 (IL-1b), inner domain is AB048 (PGE2); also called VD158H; VD158L) VH: QVQLVESGGGVVQPGRSLRLSCAASGFTFSVYGMNWVRQAPGKGLEWVAIIWYDGDNQYYADSVKGRFTISRDNSKNTLYLQMNGLRAEDTAVYYCARDLRTGPFDYWGQGTLVTVSSASTKGPEVQLVQSGAEVKKPGASVKVSCKASGYTFTKYWLGWVRQAPGQGLEWMGDIYPGYDYTHYNEKFKDRVTLTTDTSTSTAYMELRSLRSDDTAVYYCARSDGSSTYWGQGTLVTVSS VL: EIVLTQSPDFQSVTPKEKVTITCRASQSIGSSLHWYQQKPDQSPKLLIKYASQSFSGVPSRFSGSGSGTDFTLTINSLEAEDAAAYYCHQSSSLPFTFGPGTKVDIKRTVAAPDVLMTQTPLSLPVTPGEPASISCTSSQNIVHSNGNTYLEWYLQKPGQSPQLLIYKVSNRFSGVPDRFSGSGSGTDFTLKISRVEAEDVGVYYCFQVSHVPYTFGGGTKVEIKR",Kd,[7],0.0387 nM
same,koff,[7],3.84e-05 s⁻¹
same,kon,[7],992000 M⁻¹ s⁻¹
same,N-terminal VD IL-1β Neutralization Assay EC50 nM (IL-8 release by MRC5 cells),[8],0.11 nM
same,EC50,[9],17.6 nM
"DVD162 (VEGF / PGE2 DVD-Ig) (bispecific antibody, Outer domain is AB014 (VEGF), inner domain is AB048 (PGE2); also called VD162H; VD162L) VH: EVQLVESGGGLVQPGGSLRLSCAASGYTFTNYGMNWVRQAPGKGLEWVGWINTYTGEPTYAADFKRRFTFSLDTSKSTAYLQMNSLRAEDTAVYYCAKYPHYYGSSHWYFDVWGQGTLVTVSSASTKGPEVQLVQSGAEVKKPGASVKVSCKASGYTFTKYWLGWVRQAPGQGLEWMGDIYPGYDYTHYNEKFKDRVTLTTDTSTSTAYMELRSLRSDDTAVYYCARSDGSSTYWGQGTLVTVSS VL: DIQMTQSPSSLSASVGDRVTITCSASQDISNYLNWYQQKPGKAPKVLIYFTSSLHSGVPSRFSGSGSGTDFTLTISSLQPEDFATYYCQQYSTVPWTFGQGTKVEIKRTVAAPDVLMTQTPLSLPVTPGEPASISCTSSQNIVHSNGNTYLEWYLQKPGQSPQLLIYKVSNRFSGVPDRFSGSGSGTDFTLKISRVEAEDVGVYYCFQVSHVPYTFGGGTKVEIKR",Kd,[10],0.266 nM
same,koff,[10],0.000131 s⁻¹
same,kon,[10],490000 M⁻¹ s⁻¹
same,EC50,[11],1.79 nM
"AB020 anti-NGF parent antibody (antibody, human IgG1, V domains shown) VH: QVQLQESGPGLVKPSETLSLTCTVSGFSLIGYDLNWIRQPPGKGLEWIGIIWGDGTTDYNSAVKSRVTISKDTSKNQFSLKLSSVTAADTAVYYCARGGYWYATSYYFDYWGQGTLVTVSS VL: DIQMTQSPSSLSASVGDRVTITCRASQSISNNLNWYQQKPGKAPKLLIYYTSRFHSGVPSRFSGSGSGTDFTFTISSLQPEDIATYYCQQEHTLPYTFGQGTKLEIKR",koff,[12],0.000112 s⁻¹
same,kon,[12],261000 M⁻¹ s⁻¹
same,EC50,[13],2.59 nM
same,Kd,[14],0.428 nM

# Source: patent US20150017095A1 (AbbVie / Abbott, published 2015)
